Experimental findings from patent publication US20050153377A1 (ORIENTAL YEAST CO., LTD., priority 1999, published 2005) are described below.

The target of one test is T1, CRP (Homo sapiens, UniProt P02741).
T1 construct: purchased Oriental Yeast Co., Ltd. (Japan); host or cells: Escherichia coli
T1 sequence (P02741 19-224): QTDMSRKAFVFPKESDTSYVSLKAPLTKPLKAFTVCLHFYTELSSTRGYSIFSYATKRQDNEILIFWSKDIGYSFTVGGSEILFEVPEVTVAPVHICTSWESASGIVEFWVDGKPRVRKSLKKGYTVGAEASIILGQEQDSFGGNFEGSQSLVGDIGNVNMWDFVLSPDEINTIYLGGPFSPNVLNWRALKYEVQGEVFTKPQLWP
Description: CRP activity to bind to immobilized PC-BSA, PC-antibody method (C). Format: binding. As to conditions: Eu3+-labeled anti-CRP antibody, FIG. 6. As to the method:
Because it was difficult to immobilize PC-BSA without modification of the microtiter plate, PC-BSA was immobilized on the wells of a microtiter plate by using the PVLA method [Suzuki, N., et al., (1997) Anal. Biochem. 247, 4-12-416]. PVLA (2 mg) was suspended in 1 ml of water by ultrasonication; the resulting PVLA suspension of 40 μl was added to each well, for overnight incubation at 4° C. 1 mM NaIO4 solution was added in 50 μl-portions to each well, and the plate was incubated in darkness at ambient temperature for one hour. After the plate was washed, the PC-BSA solution (100 ng protein in 40 μl of water) was added to each well, followed by mixing with 5 μl of 2% (v/v) borane-pyridine complex, for incubation at 37° C. for 2 hours. The wells were blocked through incubation with 1M glycylglycine (40 μl) at 37° C. for 4 hours, and then followed by incubation with 200 μl of TBS containing 2% (w/v) BSA at 4° C. overnight. After the added solutions were removed at the individual stages of the following method, the wells were washed six times with 200 μl of TBS.
So as to immobilize PC58- or PC7-BSA solution (40 μl containing […] and PC of about 120 pmol or 15 pmol) in water, the solution was left to stand in the PVLA-coated well. After the wells were coated with PC-BSA and blocked with BSA, they were then washed six times with TBS (200 μl). […]

The target of test [1] is PC58-BSA (conjugate with 58 phosphorylcholine molecules on average bound per one bovine serum albumin molecule) (bovine) (UniProt P02769). Kind of test: quantitative precipitation at saturation, 20 µg PC58-BSA with 50 µg CRP.
PC58-BSA (conjugate with 58 phosphorylcholine molecules on average bound per one bovine serum albumin molecule) (bovine), sequence (P02769 25-607 limits assumed, form in doubt): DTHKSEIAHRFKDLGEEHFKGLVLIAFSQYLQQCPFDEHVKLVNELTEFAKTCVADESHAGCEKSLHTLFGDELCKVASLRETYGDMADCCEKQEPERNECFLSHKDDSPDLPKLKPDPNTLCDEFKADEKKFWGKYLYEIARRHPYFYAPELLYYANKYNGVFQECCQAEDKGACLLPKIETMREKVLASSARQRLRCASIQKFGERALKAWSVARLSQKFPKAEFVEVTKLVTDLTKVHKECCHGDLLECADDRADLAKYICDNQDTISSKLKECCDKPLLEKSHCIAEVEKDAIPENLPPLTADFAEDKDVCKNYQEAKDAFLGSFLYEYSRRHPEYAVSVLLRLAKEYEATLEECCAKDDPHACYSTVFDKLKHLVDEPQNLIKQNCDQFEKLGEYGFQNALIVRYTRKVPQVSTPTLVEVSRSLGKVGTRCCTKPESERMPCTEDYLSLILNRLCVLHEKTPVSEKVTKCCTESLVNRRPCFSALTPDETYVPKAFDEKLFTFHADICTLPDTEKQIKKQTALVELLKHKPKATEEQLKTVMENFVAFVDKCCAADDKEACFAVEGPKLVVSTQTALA

For “PC7-BSA: PC conjugate of bovine serum albumin (BSA) produced by the previously reported method”, the “anti-CRP antibody (IgG) bound per PC-BSA-coated well” value in the test with CRP was 2.2 fmol per well.

In the case of “PC58-BSA: conjugate where 58 PC molecules on average are bound per one BSA molecule”, the “anti-CRP antibody (IgG) bound per PC-BSA-coated well” value with CRP was found to be 5.6 fmol per well.

B1: Recombinant human C-reactive protein (rhCRP) expressed in Escherichia coli (protein, UniProt P02741 19-224, looked up)
chain: QTDMSRKAFVFPKESDTSYVSLKAPLTKPLKAFTVCLHFYTELSSTRGYSIFSYATKRQDNEILIFWSKDIGYSFTVGGSEILFEVPEVTVAPVHICTSWESASGIVEFWVDGKPRVRKSLKKGYTVGAEASIILGQEQDSFGGNFEGSQSLVGDIGNVNMWDFVLSPDEINTIYLGGPFSPNVLNWRALKYEVQGEVFTKPQLWP
As for B1, in test [1], the amount of CRP in the precipitate stood at 0.37 nmol, the amount of PC58-BSA in the precipitate was 0.17 nmol and the ratio PC58-BSA:CRP in the precipitate (mol CRP (pentamer) per mol PC58-BSA) is 2.2.
